From patent US20250164464A1, “LIVER ORGANOID-DERIVED CULTURED HEPATOCYTES” (OSAKA UNIVERSITY, priority 2022, published 2025) come the findings set out here.

The subject of series [1] is CYP1A2. The experiment in a line: Induction of drug-metabolizing enzyme in hepatocytes (2D differentiated cells) (Example 6). In kind it is cell-based, human. The settings on record: 50 μM for 24 hours; added on third, sixth or ninth day of culture; control DMSO. Here is the method:
(§1) In this Example, the hepatocytes (2D differentiated cells) of the present invention were evaluated for the induction of a drug-metabolizing enzyme on the third day, sixth day, and ninth day of their culture (FIG. 6A). […] After that, the ΔCt value ((Ct value of GAPDH)-(Ct value of target gene)) of each CYP gene was measured for each cell. As a control, dimethylsulfoxide (DMSO) serving as a solvent for each metabolizing enzyme activator was added thereto.

The test system of series [2] is CYP2B6. Described as above. The settings on record: 1 mM for 24 hours; added on third, sixth or ninth day of culture; control DMSO. Here is the method: as §1
In series [3] the test system is hepatic organoid cells. The series can be described thus: Screening of monolayer culture conditions, sixth day of culture, quantitative RT-PCR (Example 3). Format: cell-based, human. The note with it: versus third day of culture. Here is the method: Culture conditions up to the sixth day of culture when hepatic organoid cells were subjected to monolayer culture with a HCM™ medium having added thereto each of various factors were investigated in the same manner as in each of Examples 1 and 2.
The hepatic organoid cells were seeded at 3.0×10^5 cells/well on a collagen-coated 48-well plate, and were differentiated with the HCM™ medium having added thereto the EMTi and BMP7 (50 ng/mL) described in Example 2 until the third day of the culture. […] The respective gene expression levels of ALB and CYP3A4 serving as liver cell markers after 6 days of two-dimensional culture were analyzed by a quantitative RT-PCR method. As a comparative example, the gene expression levels of PHHs cultured only with the HCM™ medium and iPS-HLCs were also identified in the same manner as in Example 1.
The respective gene expression levels of ALB and CYP3A4 were measured by a quantitative RT-PCR method for the respective cells after their culture. A gene expression level when the hepatic organoid cells were cultured only with the HCM™ medium having added thereto the above-mentioned EMTi was defined as a vehicle. Comparison was performed while the gene expression level of ALB of the cells cultured by using the EMTi and BMP7 (50 ng/mL) in combination on the third day of the culture was defined as 1.0.

Series [4] concerns hepatic organoid cells. The series can be described thus: Screening of monolayer culture conditions, ninth day of culture, quantitative RT-PCR (Example 4). Format: cell-based, human. The note with it: EMTi and FGF19 (100 ng/mL). As for the experimental part: The medium was replaced with a new one on the third day of the culture, and the cells were differentiated with the HCM™ medium having added thereto the EMTi and FGF19 (100 ng/mL) until the sixth day of the culture.
The respective gene expression levels of ALB and CYP3A4 serving as liver cell markers after 9 days of two-dimensional culture were analyzed by a quantitative RT-PCR method.
The respective gene expression levels of ALB and CYP3A4 were measured by a quantitative RT-PCR method for the respective cells after their culture. A gene expression level when the hepatic organoid cells were cultured only with the HCM™ medium having added thereto the above-mentioned EMTi was defined as a vehicle. Comparison was performed while the gene expression level of ALB of the cells cultured with the HCM™ medium having added thereto the EMTi and FGF19 (100 ng/mL) on the sixth day of the culture was defined as 1.0.

The subject of series [5] is hepatic organoid cells. The series can be described thus: Screening of monolayer culture conditions, third day of culture, EMTi and humoral factors, quantitative RT-PCR (Example 2). In kind it is cell-based, human. The settings on record: combined use of EMTi and BMP7 (50 ng/mL); 72 hours; vehicle (EMTi only)=1.0.

As to `COc1ccc2[nH]c([S+]([O-])Cc3ncc(C)c(OC)c3C)nc2c1` (stereo not shown) [omeprazole], the “gene expression level of CYP1A2 (ΔCt value)” value in series [1] is given as “further enhanced”.

For the molecule `CCC1(c2ccccc2)C(=O)NC(=O)NC1=O` [phenobarbital], the “gene expression level of CYP2B6 (ΔCt value)” value in series [2] is recorded as “further enhanced”.

fibroblast growth factor 19 [FGF19]: the “gene expression level of CYP3A4 increased by a factor of” value in series [3] (EMTi and FGF19 (100 ng/ml)) was “about 95”; in series [4] (versus sixth day of culture), “about 40”. The “gene expression level of ALB” value in series [4] (versus sixth day of culture (=1.0)) is “increasing tendency”.

B1: bone morphogenetic protein 7 (protein, UniProt P18075 293-431, looked up)
Bone morphogenetic protein 7: STGSKQRSQNRSKTPKNQEALRMANVAENSSSDQRQACKKHELYVSFRDLGWQDWIIAPEGYAAYYCEGECAFPLNSYMNATNHAIVQTLVHFINPETVPKPCCAPTQLNAISVLYFDDSSNVILKKYRNMVVRACGCH
notes: recombinant protein added as a humoral factor
Consider B1, for which the “gene expression level of CYP3A4 increased by a factor of” value was 50 in series [5]; “about 50” in series [3] (EMTi and BMP7 (50 ng/ml)).
